{"source": "patent US20250326792A1", "about": "“A FORMULATION FOR TREATMENT OF PIGMENTARY DISORDERS” (priority 2022, published 2025)", "key": {"B16F10 cells": {"test_system": "B16F10 cells", "assay": "Cell viability (XTT assay) in B16F10 cells", "assay_type": "cell-based", "conditions": "1000 μg/ml for about 48 hours", "description": "Culture and maintenance of cell lines: B16F10 cells were cultured in RPMI containing 10% fetal bovine serum, 100 units per millilitre (U/mL) penicillin, 0.1 mg/mL streptomycin, and 0.25 microgram per millilitre (μg/mL) amphotericin B at 37 degrees Celsius in a humidified 95% air/5% CO2 incubator. Drug treatment was done 24 hours after seeding. Cells were harvested 48 hours later and melanin content and tyrosinase activity determined in triplicate. […] […]\nB16F10 and NHEM cells were sub-cultured into 96-well culture plates at a density of 1×10^4 cells/well in 100 μL medium and after about 24 hours of incubation, the medium was discarded and replaced with 100 μL of a suitable medium (RPMI for B16F10 and DMEM for NHEM with 1% FBS) for starvation and then treated in the presence or absence of various concentrations of test compound and positive controls (IBMX and α-MSH). […] At the end of the incubation, about 50 μL of XTT test solution prepared by mixing about 5 mL of XTT-labeling reagent and about 100 μL of electron coupling reagent is added to each well and after about 4 hours of incubation at 37° C. and a about 5% CO2 incubator, the absorbance was measured on an ELISA reader at a test wavelength of 490 nm."}, "[1]": {"assay": "Stability of IS103 API, long term (Condition 2, −20±5° C.)", "assay_type": "physicochemical", "conditions": "for Internal change in attributes: Appearance / Internal change in attributes: Clarity of solution / Internal change in attributes: Color / Internal change in attributes: Color of solution / Internal change in attributes: Odor / API calculated on the anhydrous basis / Appearance white to off white amorphous powder / Related substances (By HPLC) Any Max Impurity / Related substances (By HPLC) Total Impurity / Solubility Sparingly soluble in water / Water Content (By Karl Fischer-Titrator): −20±5° C.", "description": "The purpose of stability testing is to provide evidence on how the quality of a drug substance or drug product varies with time under the influence of a variety of environmental factors such as temperature, humidity, etc. and to establish a re-test period for the drug substance or a shelf life for the drug product and recommended storage conditions. The study was conducted according to the WHO and schedule-Y guidelines.\nThe IS103 API is a lyophilized white fluffy powder, and it was filled at sterile condition in glass injection vial which has airlock-rubber capping. This container closure system is same as or simulates the packaging proposed for storage and distribution.\nThe following test attributes have been selected according to the above said guidelines: • appearance; odour; colour; colour of solution (when IS103 API is soluble in solvent); clarity of solution; degradation and assessment of container closure system.\nTesting frequency for long term studies have been designed as per schedule Y. The long-term stability studies have been conducted on 1, 3, 6, 9, 12, 18, 24 and 36 months.\nThe studies were conducted under appropriate storage conditions (with appropriate tolerances) that test IS103 API thermal stability and its sensitivity to moisture. The IS103 API is intended for storage for 36 months. Accordingly, long term stability studies were done for 36 months. The details of the storage conditions have been furnished hereunder."}}, "note": "PHPP = 3-Phenylpyrazolo[3,4-d]pyrimidine (N-terminal cap)"}
{"substance": "PHPP-Tyr-Arg-Ser-Arg-Lys-Tyr-Ser-Ser-Trp-Tyr-NH2 ({PHPP}-YRSRKYSSWY-NH2) [IS103]", "values": [{"measurement": "effect on cell viability", "setting": "B16F10 cells", "result": "did not exert any significant effect on cell viability"}, {"measurement": "found to be stable for", "setting": "[1]; long term stability condition (of −20±5° C.)", "result": 36, "unit": "months"}, {"measurement": "Internal change in attributes: Appearance", "setting": "[1]; 1st month", "result": "No change"}, {"measurement": "Internal change in attributes: Clarity of solution", "setting": "[1]; 1st month", "result": "No change"}, {"measurement": "Internal change in attributes: Color", "setting": "[1]; 1st month", "result": "No change"}, {"measurement": "Internal change in attributes: Color of solution", "setting": "[1]; 1st month", "result": "No change"}, {"measurement": "Internal change in attributes: Odor", "setting": "[1]; 1st month", "result": "No change"}, {"measurement": "API calculated on the anhydrous basis", "setting": "[1]; 3 M", "result": 99.51, "unit": "%"}, {"measurement": "Appearance white to off white amorphous powder", "setting": "[1]; 3 M", "result": "White"}, {"measurement": "Related substances (By HPLC) Any Max Impurity", "setting": "[1]; 3 M", "result": 0.22, "unit": "%"}, {"measurement": "Related substances (By HPLC) Total Impurity", "setting": "[1]; 3 M", "result": 0.37, "unit": "%"}, {"measurement": "Solubility Sparingly soluble in water", "setting": "[1]; 3 M", "result": "Complies"}, {"measurement": "Water Content (By Karl Fischer-Titrator)", "setting": "[1]; 3 M", "result": 4.06, "unit": "% w/w"}, {"measurement": "Internal change in attributes: Appearance", "setting": "[1]; 3rd month", "result": "No change"}, {"measurement": "Internal change in attributes: Clarity of solution", "setting": "[1]; 3rd month", "result": "No change"}, {"measurement": "Internal change in attributes: Color", "setting": "[1]; 3rd month", "result": "No change"}, {"measurement": "Internal change in attributes: Color of solution", "setting": "[1]; 3rd month", "result": "No change"}, {"measurement": "Internal change in attributes: Odor", "setting": "[1]; 3rd month", "result": "No change"}, {"measurement": "API calculated on the anhydrous basis", "setting": "[1]; 12 M", "result": 99.11, "unit": "%"}, {"measurement": "Appearance white to off white amorphous powder", "setting": "[1]; 12 M", "result": "White"}, {"measurement": "Related substances (By HPLC) Any Max Impurity", "setting": "[1]; 12 M", "result": 0.36, "unit": "%"}, {"measurement": "Related substances (By HPLC) Total Impurity", "setting": "[1]; 12 M", "result": 0.44, "unit": "%"}, {"measurement": "Solubility Sparingly soluble in water", "setting": "[1]; 12 M", "result": "Complies"}, {"measurement": "Water Content (By Karl Fischer-Titrator)", "setting": "[1]; 12 M", "result": 4.45, "unit": "% w/w"}, {"measurement": "Internal change in attributes: Appearance", "setting": "[1]; 12th month", "result": "No change"}, {"measurement": "Internal change in attributes: Clarity of solution", "setting": "[1]; 12th month", "result": "No change"}, {"measurement": "Internal change in attributes: Color", "setting": "[1]; 12th month", "result": "No change"}, {"measurement": "Internal change in attributes: Color of solution", "setting": "[1]; 12th month", "result": "No change"}, {"measurement": "Internal change in attributes: Odor", "setting": "[1]; 12th month", "result": "No change"}, {"measurement": "API calculated on the anhydrous basis", "setting": "[1]; 18 M", "result": 99.03, "unit": "%"}, {"measurement": "Appearance white to off white amorphous powder", "setting": "[1]; 18 M", "result": "White"}, {"measurement": "Related substances (By HPLC) Any Max Impurity", "setting": "[1]; 18 M", "result": 0.62, "unit": "%"}, {"measurement": "Related substances (By HPLC) Total Impurity", "setting": "[1]; 18 M", "result": 0.62, "unit": "%"}, {"measurement": "Solubility Sparingly soluble in water", "setting": "[1]; 18 M", "result": "Complies"}, {"measurement": "Water Content (By Karl Fischer-Titrator)", "setting": "[1]; 18 M", "result": 4.54, "unit": "% w/w"}, {"measurement": "Internal change in attributes: Appearance", "setting": "[1]; 18th month", "result": "No change"}, {"measurement": "Internal change in attributes: Clarity of solution", "setting": "[1]; 18th month", "result": "No change"}, {"measurement": "Internal change in attributes: Color", "setting": "[1]; 18th month", "result": "No change"}, {"measurement": "Internal change in attributes: Color of solution", "setting": "[1]; 18th month", "result": "No change"}, {"measurement": "Internal change in attributes: Odor", "setting": "[1]; 18th month", "result": "No change"}, {"measurement": "API calculated on the anhydrous basis", "setting": "[1]; 24 M", "result": 98.95, "unit": "%"}, {"measurement": "Appearance white to off white amorphous powder", "setting": "[1]; 24 M", "result": "White"}, {"measurement": "Related substances (By HPLC) Any Max Impurity", "setting": "[1]; 24 M", "result": 0.60, "unit": "%"}, {"measurement": "Related substances (By HPLC) Total Impurity", "setting": "[1]; 24 M", "result": 0.82, "unit": "%"}, {"measurement": "Solubility Sparingly soluble in water", "setting": "[1]; 24 M", "result": "Complies"}, {"measurement": "Water Content (By Karl Fischer-Titrator)", "setting": "[1]; 24 M", "result": 4.61, "unit": "% w/w"}, {"measurement": "Internal change in attributes: Appearance", "setting": "[1]; 24th month", "result": "No change"}, {"measurement": "Internal change in attributes: Clarity of solution", "setting": "[1]; 24th month", "result": "No change"}, {"measurement": "Internal change in attributes: Color", "setting": "[1]; 24th month", "result": "No change"}, {"measurement": "Internal change in attributes: Color of solution", "setting": "[1]; 24th month", "result": "No change"}, {"measurement": "Internal change in attributes: Odor", "setting": "[1]; 24th month", "result": "No change"}, {"measurement": "API calculated on the anhydrous basis", "setting": "[1]; 36 M", "result": 98.73, "unit": "%"}, {"measurement": "Appearance white to off white amorphous powder", "setting": "[1]; 36 M", "result": "White"}, {"measurement": "Related substances (By HPLC) Any Max Impurity", "setting": "[1]; 36 M", "result": 0.84, "unit": "%"}, {"measurement": "Related substances (By HPLC) Total Impurity", "setting": "[1]; 36 M", "result": 0.97, "unit": "%"}, {"measurement": "Solubility Sparingly soluble in water", "setting": "[1]; 36 M", "result": "Complies"}, {"measurement": "Water Content (By Karl Fischer-Titrator)", "setting": "[1]; 36 M", "result": 4.56, "unit": "% w/w"}, {"measurement": "Internal change in attributes: Appearance", "setting": "[1]; 36th month", "result": "No change"}, {"measurement": "Internal change in attributes: Clarity of solution", "setting": "[1]; 36th month", "result": "No change"}, {"measurement": "Internal change in attributes: Color", "setting": "[1]; 36th month", "result": "No change"}, {"measurement": "Internal change in attributes: Color of solution", "setting": "[1]; 36th month", "result": "No change"}, {"measurement": "Internal change in attributes: Odor", "setting": "[1]; 36th month", "result": "No change"}, {"measurement": "API calculated on the anhydrous basis", "setting": "[1]; Initial", "result": 99.73, "unit": "%"}, {"measurement": "Appearance white to off white amorphous powder", "setting": "[1]; Initial", "result": "White"}, {"measurement": "Related substances (By HPLC) Any Max Impurity", "setting": "[1]; Initial", "result": 0.14, "unit": "%"}, {"measurement": "Related substances (By HPLC) Total Impurity", "setting": "[1]; Initial", "result": 0.32, "unit": "%"}, {"measurement": "Solubility Sparingly soluble in water", "setting": "[1]; Initial", "result": "Complies"}, {"measurement": "Water Content (By Karl Fischer-Titrator)", "setting": "[1]; Initial", "result": 3.91, "unit": "% w/w"}]}
